Reference: paper PMC3823766, “Paralogs hnRNP L and hnRNP LL Exhibit Overlapping but Distinct RNA Binding Constraints”

T1: FLAG-hnRNP LL (UniProt Q8WVV9 1-542)
T1 sequence: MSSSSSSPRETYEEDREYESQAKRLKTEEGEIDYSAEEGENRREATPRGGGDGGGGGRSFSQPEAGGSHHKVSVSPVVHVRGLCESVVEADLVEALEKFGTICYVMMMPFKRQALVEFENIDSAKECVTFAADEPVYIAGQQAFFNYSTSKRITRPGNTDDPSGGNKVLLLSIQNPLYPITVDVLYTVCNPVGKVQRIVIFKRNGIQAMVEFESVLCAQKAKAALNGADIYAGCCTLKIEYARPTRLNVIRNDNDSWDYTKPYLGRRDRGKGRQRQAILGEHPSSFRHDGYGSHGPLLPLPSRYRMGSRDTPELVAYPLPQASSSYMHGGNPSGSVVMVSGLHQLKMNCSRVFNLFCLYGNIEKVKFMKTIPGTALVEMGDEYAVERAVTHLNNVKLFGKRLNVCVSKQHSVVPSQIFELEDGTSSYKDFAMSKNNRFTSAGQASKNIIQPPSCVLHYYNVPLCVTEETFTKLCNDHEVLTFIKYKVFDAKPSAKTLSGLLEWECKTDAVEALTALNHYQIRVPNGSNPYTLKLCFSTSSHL

T2: GST-hnRNP L (UniProt P14866 1-589)
T2 sequence: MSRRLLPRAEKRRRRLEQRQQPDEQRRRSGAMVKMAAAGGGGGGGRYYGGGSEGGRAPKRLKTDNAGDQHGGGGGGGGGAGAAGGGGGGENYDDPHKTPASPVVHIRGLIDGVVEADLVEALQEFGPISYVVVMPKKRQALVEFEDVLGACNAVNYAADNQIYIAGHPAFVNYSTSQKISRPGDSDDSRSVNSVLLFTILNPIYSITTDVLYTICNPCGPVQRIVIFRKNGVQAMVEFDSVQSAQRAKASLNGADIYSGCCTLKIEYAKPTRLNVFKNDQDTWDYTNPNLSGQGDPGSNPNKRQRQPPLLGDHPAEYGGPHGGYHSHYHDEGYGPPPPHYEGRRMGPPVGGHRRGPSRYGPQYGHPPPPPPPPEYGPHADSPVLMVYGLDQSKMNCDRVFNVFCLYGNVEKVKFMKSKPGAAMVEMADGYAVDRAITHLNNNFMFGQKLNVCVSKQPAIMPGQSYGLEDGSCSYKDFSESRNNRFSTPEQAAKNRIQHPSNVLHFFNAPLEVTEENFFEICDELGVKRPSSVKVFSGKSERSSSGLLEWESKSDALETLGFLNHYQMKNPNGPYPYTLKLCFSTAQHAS

B1: CAuaCA (N=2) (ssRNA)
RNA: GAUCCUACAUACAUAGAUCUUACAUACAUAGAUCUUACAUACAUAGAUCUUACAUACAUAGAUCU
B2: CAccCA (ssRNA)
RNA: GAUCCCCCACCCAAGAUCUCCCACCCAAGAUCUCCCACCCAAGAUCUCCCACCCAAGAUCU
B3: CACACA x4 (N=2 ca spacer) (ssRNA)
RNA: GAUCCUUCACACAUUAGAUCUUUCACACAUUAGAUCUUUCACACAUUAGAUCUUUCACACAUUAGAUCU
B4: CAcCA (N=1) (ssRNA)
RNA: GAUCCUCACCACCAUAGAUCUUCACCACCAUAGAUCUUCACCACCAUAGAUCUUCACCACCAUAGAUCU
B5: CA spacer N=3 (ssRNA)
RNA: GAUCCUACAUUACAUAGAUCUUACAUUACAUAGAUCUUACAUUACAUAGAUCUUACAUUACAUAGAUCU

What was measured:
Test in all cases: EMSA; EMSA: ~1 fmol 32P RNA (0.1 nM), 4.5% native PAGE; binding buffer as in cited ref 9, not given; BC50 values printed only in figures
[1] = target: T1, FLAG-hnRNP LL; settings: protein: recombinant; tags: N-terminal FLAG; label: 32P-CTP body label
[2] = target: T2, GST-hnRNP L; settings: protein: recombinant; label: 32P-CTP body label
[3] = target: T1, FLAG-hnRNP LL; settings: protein: recombinant; tags: N-terminal FLAG; label: 32P-CTP body label; remark: listed apart in the source
[4] = target: T2, GST-hnRNP L; settings: protein: recombinant; label: 32P-CTP body label; remark: listed apart in the source
[5] = target: T2, GST-hnRNP L; settings: protein: recombinant; label: 32P-CTP body label; remark: listed apart in the source
[6] = target: T1, FLAG-hnRNP LL; settings: protein: recombinant; tags: N-terminal FLAG; label: 32P-CTP body label; remark: listed apart in the source
[7] = target: T1, FLAG-hnRNP LL; settings: protein: recombinant; tags: N-terminal FLAG; label: 32P-CTP body label; remark: listed apart in the source

Row | Binder | binding result [1] | binding result [2] | binding signal [5] [fold weaker than ESS1] | further results
1 | B1 | binds | binds |  | 
2 | B2 |  |  |  | binding signal [3]: 5 fold weaker than CACACA; binding signal [4]: 15 fold weaker than CACACA
3 | CUUACCUACUCACACCACUGCAUUCUCACCCGCAAGCACC (ssRNA) [ESS1 wild type] |  |  |  | Kd [1]: ~2 nM; Kd [2]: ~2 nM
4 | CUUACCUACUCACACGACUGCAUUCUCACCCGCAAGCACC (ssRNA) [ESS1 CA3 mutant (CA to GA)] | binds |  | ~4 | 
5 | CUUACCUACUCAGACCACUGCAUUCUCACCCGCAAGCACC (ssRNA) [ESS1 CA2 mutant (CA to GA)] | binds |  | ~2 | 
6 | CUUACCUACUCACACCACUGCAUUCUCACCCGGAAGCACC (ssRNA) [ESS1 CA6 mutant (CA to GA)] |  |  | ~10 | binding signal [6]: > 5 fold weaker than ESS1
7 | CUUACCUACUCACACCACUGCAUUCUCACCCGCAAGUACC (ssRNA) [ESS1 CA7 mutant (CA to TA)] |  | binds |  | binding signal [6]: > 5 fold weaker than ESS1
8 | CUUACCUACUCACACCACUGGAUUCUCACCCGCAAGCACC (ssRNA) [ESS1 CA4 mutant (CA to GA)] | binds |  | ~2 | 
9 | CUUACCUACUUACACCACUGCAUUCUCACCCGCAAGCACC (ssRNA) [ESS1 CA1 mutant (CA to TA)] | binds |  |  | 
10 | CUUACCUACUCACACCACUGCAUUCUGACCCGCAAGCACC (ssRNA) [ESS1 CA5 mutant (CA to GA)] | binds |  |  | 
11 | B3 | binds | binds |  | 
12 | B4 |  | binds |  | binding signal [7]: > 4 fold weaker than CACACA (at least)
13 | B5 |  | binds |  | 
